Assay: label from the status in PepcDB records
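Note: failed if final PepcDB status was selected cloned or expressed and not failed if soluble or beyond.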

Sequence | protein production
MKSIRRGDGLNVVPFIDIMLVLLAIVLSISTFIAQGKIKVSLPNAKNAEKSQPNDQKVVVISVDEHDNIFVDDKPMNLEALSAVVKQTDPKTLIDLKSDKSSRFETFISIMDILKEHNHENFSISTQAQ | failed
MNRSDKWQQRVAQVAYRFNQQYQNQSLELPAEVQEMPIYREWISGILAGKIASPFWEMAQPQKNQHCLDIGCGVSFLIYPWRDWQAFFYGQDVSNVARDTLNSRGSQLNSKLFKGVELGAAHQLKYTLSYFDLAIATGFSCYFPLEYWTSVLQAVKRVLKPDGHFVFDILNAAHPQAEDWAVLETYLGAEVFLEPVTEWEKIINAAGAKVVGRQPGEFFDLYKLRLEHHHHHH | failed
MKVLLIIPAYNEEENILRTIASIETFKQEVTHFQHELDYVVINDGSTDGTKQILEANQINAIHLVLNLGIGGAVQTGYKYALENEYDVAVQFDGDGQHDINSLPILLEPLAEGKCDFSIGSRFIPGNEASFQSTKMRRFGIRLLSFCIRMASGKTIYDVTSGYRAGNRKVIAFFAKRYPTNYPEPESIVHLIKKRFVIVERPVNMMERLGGVSSIRALASVKYMLEVGSAILIAAFMKEGDLEHHHHHH | not failed
MINFFDLFLSDFLTSLRLFCKVWDEQTTLQALLEHVRAIPGHCQKKILTKLLVTDIWDKEDTKLLAALKHIDVRPTRVACRPSLQVLGLYNDVVTVFQTHGMGWYREIDEDVYPKLVKEFIATCRLTYANPENPKASQGTLTFFLNKKHYNKTMFEIYDMYGFTKGEAVEFSKLSPTHITSLLSTTNPVFEHNEQYLVPDPSKTVPRRRRTAEAQPTDEHVISNDEIYEDYAYPTSLAHAQPYLLLPEDPTPYRVSPPPAGDDISQQMAWMIALTRKNNSMMHKMWRAISRIRPCVCTRRGGVDDANRENQSKTIEDRHAERLVPAAGPSGASTSQPPPEHSQAVA | not failed
AWQAAVASNEPFGEAQLAQRIRRYLPEQGQLFVGNSLVVRLIDALAQLPAGYPVYSNRGASGIDGLIATAAGVQRASARPTLAIVGDLSALYDLNSLALLRQASAPLVLIVVNNNGGQIFSMLPTPQDERRQFYLMPQDVDFSHAAVMFGLAYHRPDDWPSLDEALAGAWRRAGATVIELAVNETDGAQTLQQLLAQVSRL | failed
MEIEVKFRVNFEDIKRKIEGLGAKFFGIEEQEDVYFELPSPKLLRVRKINNTGKSYITYKEILDKRNEEFYELEFEVQDPEGAIELFKRLGFKVQGVVKKRRWIYKLNNVTFELNRVEKAGDFLDIEVITSNPEEGKKIIWDVARRLGLKEEDVEPKLYIELING | not failed
MPDLMHSELTMSGPEQSLLAGALLGAGLPADAHRHLELAGRDYQSEALAEQHLREAHLLAPDHAAVLIGLYRFYFYKGRLGEALEVAQACLCKAARDNGLASDWRKVRRGDAEFSSYSAVLPRFYLFALKAYAYLQMRLGQLDEGHAAVEKLLELDPTDKVGAAVLLDVWRRIGQDDDD | failed
MIKRLKVNVIDLSSLVYLIFAVIPLFTFDLKGPYWMYVIIFIIFTISYTALAIFTEVLSTKMIYTFLILHYIGITYLVYSVGPATSLFFFFSSFILPYVLKVKMKSIAFLIFIVVMLINFILIYVADPLSLGFIAVMHIAILLITVGNFKQSETIKMKNALEEKNKHINVLIAEQERNRIGQDLHDTLGHVFASSSIKSELAIKLIDSDSEKAKLQMIEVNNISKESLNKVRSIVNDLKIQSFEEEVASMETLLKNANLNFEFFNAELAKGISPAKQAILAMILREAINNVLKHAHATSVTGSLTETQNDITLTIIDNGIGMDDLKEHDLKSIKERVALMNGSIEIQSNHGLCISIKISRGDA | failed
MLFEQIAANKRKTVFIILGFFIFVLMVGAAIGIIVWNNYLNGLILAAAIGAVYILIMVMSSSSVVMAMNHAKEVTSKEQAPVLWDTVESMAMVAGIPMPKVYIVEDPSPNAFATGISPEKGAVAVTRGLLNKLERYELEGVIAHEISHIRNYDIRLSTIAIALVAVIAILSDLAMRLIFWGSLTGGRNSRKSDNNNGGGAQIIIYVVALIFVILAPIIATAIQFALSRNREYLADASAVELTRNPDGLIQALQKISGDTKKMEEVSASSESIYFSSPLKSKKDKPGLFDSHPPISSRIERLENM | failed
MEIFILIGLIVLNGLFAMSEIAIVTARKSRLTALAHAGSSTAKAALKLAEDPTQFLSTVQIGITSIGILNGIFGESILAEPLSLWLQTFGLSPDVTNIFSTVLVVIIVTYVSIVIGELVPKRIGQVSAESIACIMAKPMVFLAIATKPFVWMLSGSTHALMRLMGFSHRLDDNVTQEDIQAMLQEGSSAGVIEHNEHAMVKNVFRLDERTISSLMVPRSDIVFLDLNLPLDANLRTVMQSPHSRFPVCRNNVDDMVGIISAKQLLSESIAGERLELVDLVKNCNFVPNSLSGMELLEHFRTTGSQMVFVVDEYGDLKGLVTLQDMMDALTGEFFQEDVNDQMVIKREDGSLLLDGLIPIFDLKDALGIKQLPNEEDGRYQTLNGFLMYELGKIPQTTDIVEVAGWRLEIMDMDGKRVDKVLAQKLPDAEDSEESIFVDL | failed
MFREFINLLFMQFKMIKAYLPVFIFFSILFPLGFIFSFGTIIQRTLSTYLISGSITFFISINSIISVAQNLALERSSGRFSLMIASGIPIQLYAISITISNGIQTLMLIPVFLVLGYFLLGVRISSALFFVLSIIGSIYMASMVGLLIGTAIRNLHAVNQWSSIIGFILSFFAPVYFPLTQIPLPFRYLAYLEPTTYVSQSTYFALVGNPISLAWFGGTVVIGFLFSFLSSLLMKKAF | failed
MEYVAFSVAVIILLGLLFNRVFTRARLPGILGMLILGILIGPHGLNLISKSIMDISPDLRVIALIIILLRAGFGINLESLRKVGMTAVKMSFIPDVFEGLAVMVASHYILGLPIIEAGILGFVIAAVSPAVIVPQMLSFIERRMGTAKGIPTIILTGASVDDVVSITLFSVFLGIYQGQQVNLLVEAIGVPLSILTGITGGLALGLALVYLFRRFEIRNTEKTLIILGAAILLKNMGDLISTYLPIAALVGVMVVGLVILERMPETGLKLSEKFNKVWIFAEILLFVLVGAQVDVRLIFHVGLLGLAVITAGLMVRSIGVLLSLKGTDLNLKEKVFCISAYIPKATVQAAIGAIPLAAGVAAGETILAMAVLAILFTAPLGSLAVKWTGERFLEVERGN | failed
MHTSVQHAKTCLAVTSVSPIYVFGKTTFVSELIEQAGGKNCVETIQSAYPTVDVEYILRANPDVFIFNSTDQQKLFFETYPLLKQCKGYITNQLFVIDDSIMSRPGIRLPILKDSLVSILSKLEHHHHHH | failed
MAHGVNIYNVYSISIIALLASSFLLYAQEAKGLENAMLFLSIIFPYAFYLNGHILLYLVLPAYLIVTSSVTFHYYIYELIPTLIYYFGILPKFINYNVRLMTILWES | failed
MAKENEHFLKPDNQSPEESEQLDTVSMEPSQEIWNSTEQETSELQSDTFLSPATVRNSQTTDGYGQAEIVPATPSFMSAAGDSEEVGTPGRSLSEVFSASSLGQRSTRAADRESLQRHELGTNSFSLFSPEKEISFRNRKELEAPSGAAEEIERRVIWGTNVNVDECEQKIKKFLYEFTATTVQQDYEDGDGLQQAKPKPYYLELLTHANEMQYEVINIDLQHVFEFDSELYAYVVTYPTELIAIFDQTLQEVCKEMFATDDSSDIMSSGTSNFHAGRLITRMYNMKDTEIHSMREIDPSHIHQMIGVRGMVVRCSSVIPNMNRAFYSCNNCHWSLFVDIQRGKIEEPIQCDKCQARNSFMLIHNRSVFSDKQMIRIQETPETVPQGETPATMTIVAYDSLVDSARPGDQIEVTGILRAVSVRINPKQRSIRSVFRTYIDAIHILKGKQGRLSNSTEHMDTTSDYYPIGSDTSENALYYFERERSIREISQDPLLYDKLSRSIAPSIYGHEDLKKGILLQLFGGTRKDFSASGGGHFRSDIHVLLVGDPGTSKSLFLQYVHRIAPRGLYTSGRGSSAVGLTAYVTRDPDSNDMVLESGALVLSDKGICCIDEFDKMTDSTRSILHEAMEQQTVSIAKAGIICSLNARTSVLAAANPVESRYNPKLSVVDNIQLPPTLLSRFDLIYLILDNANPEEDKRLGNHITSLFSADTAVVHSDEDPLPSLEPATIHMPNSSHSFLDSTTLASYISYAREKVHPKLNDDAVQRLTKGYVEMRRMGNASKSWSGGIKTITATPRQLESLIRLSEAHAKMRLSDVVESQDVDEALRLVQVAMQQSAIDPITGTIDMDLITTGKSATKRSRIAKLGEAIFQYLQQTKTSDTAVRTSDVLMEVKRSSSMPFTEQDFDDAIHYLVEEERIFRVAGGLRVGTSW | failed
MNTIKLKKNALFNPEGDTDLRHRRMIGGNTTNLNDFNNMRYKWVSDWYRQAMNNFWIPEEINLTQDTKDYPHLDQAERTAYDKILSFLVFLDSLQSNNLPTISEYITANEVNLCLHIQAFQECVHSQSYSYMLDSICSPEKRNEILYQWKTDGHLLKRNTFIGNCYNEFQESQDGFTLMKTLIANYILEGIYFYSGFMFFYNLSRNGKMSGSAQEIRYINRDENTHLWLFRNIILELKKEEPDLFTPDKVKIYEYMMREGVKQEIEWGQYVIGDNIQGLNRKMIEDYIQYLGNLRWSSLGFGPLYEENHKEPESMHWVSQYSNANMVKTDFFEAKSTAYAKSTALEDDL | failed
MNPIPADVAAVVLAGGVGRRFGRPKALAMMDGISLVERAVEALSSGPADVYVSVSPALERPVARLVGSRRVIVDLVEQAPCEGPLRAFLTAASTLVSYSNLVFMPVDAPWASWRDLEPIYNASKAIGSGASYFSGEGIVHPLFLAARRKSLLTAAWTACWGRAEKRASAILRSLDPLILLGSSETRSPLALATVNTPQDLWRPSRVPAPAEGYILLEGHSILYKISSTMNSYYSALALEAEYKLYRRLGLLRLASHVLKDAAALNVSTSLIQQESMAGGLGLEHHHHHH | failed
NANLDPKTRVLEHRLLAASSAIAEKLGVSAGDEVLLIRRLRSTGDIPVAILENYLPPAFNDVSLDELEKGGLYDALRSRGVVLKIANQKIGARRAVGEESTLLDIEDGGPLLTVERVALDNSGQVIELGSHCYRPDMYN | failed
MEQLQIGDIKVTWLKGGNTHLDGGAMFGVVPKVLWSRKYKHNDTNHIYLRTDPLLLQTKDGNMLIDSGIGNGKLNEKMKRNQGVTEESSVYESLEKLGLKPEDIDYVLMTHLHFDHASGLTKWEDDHLVPSFPNAKVYVSETEWNEMRNPNIRSRNTYWKENWEPIVDQVVTFQQEIEITDEIKMARTGGHSDGHAVIALESQGETMLHLADLLPTHAHQNVLWVMAYDDYPMTSIENKQKWMKYGAEKEAWFTFYHDAYYRAVKWNEEGHIVEKIERKTSIEA | failed
MANTYGGVIFLGIEEKPKGRFSVTGIAVPERVLKALWDGLNNRQRISINLLTDKMVEVIEIQGKQVIRIQVPRARRAQRPVYVGQNPLTGTYRRNYEGDYLCDEETIKRMLAEQVEEVRDARLLENYGFDDIEPNTLKAYRNQYDLTKALSALVRDGFLESGGIARGTFYFFPGEPPNAEADLVAQNYKFVEKSSPEDLLLGIIPKEIFDDLKPSSDDLKPSSDDLEPSSDDLEPSSDDWQSLMAIAVTIRNKGKVSTDIMEATILRLCQGRFLNHKQLQELLDRSYNTLRLGYLSKMHKKGQLELRYPDKLTHPNQGYRTKNSSSSDF | failed
MIEEEAIVTQVEEHAIWVEKFRKSACGSCAGGCSTSLVARLLGGKPLRLRIATEARVAPGDRVIIGVEEGALLAGSFRMYLFPLFSLIGGALLGKLLAAQGLSATAEAGSIAGGLVGLGLTLVLLKYCPSLQRQNLHPVFIRRISR | failed
MKFKTNKLSLNLVLASSLLAASIPAFAVTGDTDQPIHIESDQQSLDMQGNVVTFTGNVIVTQGTIKINADKVVVTRPGGEQGKEVIDGYGKPATFYQMQDNGKPVEGHASQMHYELAKDFVVLTGNAYLQQVDSNIKGDKITYLVKEQKMQAFSDKGKRVTTVLVPSQLQDKNNKGQTPAQKKGN | not failed

Source: a protein production outcome set (Wang et al. 2014)
